We go through two proteins from article PMC4876015 (Structure (London, England : 1993), 2016).

The series “crystal structure” concerns the molecule itself. As to the kind of experiment: crystal structure.
Series [1] concerns the molecule itself. As to the kind of experiment: SDS-PAGE of the folded channel.

B1: KcsA V76ester channel, truncated for crystallization (domain or fragment, UniProt P0A334 1-125, looked up)
chain: MPPMLSGLLARLVKLLLGRHGSALHWRAAGAATVLLVIVLLAGSYLAVLAERGAPGAQLITYPRALWWACETATTVGYGDLCPVTLWGRLVAVVVMVAGITSFGLVTAALATWFVGREQERRGHF
modifications: peptide bond between residues 75 and 76 (Thr75-Val76, the 4' amide bond) replaced with an ester linkage
On to B1, for which, in “crystal structure”, the binding result is listed as “binds”.

B2: KcsA V76ester channel (semisynthetic, full length) (natural protein, UniProt P0A334 1-160, looked up)
chain: MPPMLSGLLARLVKLLLGRHGSALHWRAAGAATVLLVIVLLAGSYLAVLAERGAPGAQLITYPRALWWACETATTVGYGDLCPVTLWGRLVAVVVMVAGITSFGLVTAALATWFVGREQERRGHFVRHSEKAAEEAYTRTTRALHERFDRLERMLDDNRR
modifications: peptide bond between residues 75 and 76 (Thr75-Val76, the 4' amide bond) replaced with an ester linkage
Consider B2, for which, in series [1], the stoichiometry N (as a rule, the number of molecules, sites or subunits per partner or assembly) was 4.
